Tests used:
[1] = tested on: AML bone marrow mononuclear cells (BMMC); test: SCNP of paired diagnosis and relapse AML BMMC and independent diagnostic set (Example 5); assay type: cell-based, human; settings: for modulator responsive cells in the diagnostic AML bone marrow samples: diagnosis samples of Patients 1 and 2, 15 minutes modulation; for cells in which both p-Akt and p-S6 were induced: SCF 20 ng/ml, 15 minutes
Description: All AML bone marrow mononuclear cells (BMMC) were derived from the bone marrow (BM) of AML patients treated at MD Anderson Cancer Center (MDACC) between September 1999 and September 2006. Clinical data were de-identified in compliance with Health Insurance Portability and Accountability Act regulations. Patient/sample inclusion criteria required a diagnosis of French-American-British (FAB) classification of M0 through M7 AML (excluding M3) AML, collection prior to therapy initiation and at least 50% viability upon sample thaw. For the identification of chemoresistant signaling profiles, two longitudinally paired BMMC samples at diagnosis (collection prior to the initiation of induction chemotherapy) and first relapse, were examined. An independent test set comprised of 47 BMMC samples collected at diagnosis from AML patients with a disease response of CR after high dose cytarabine based chemotherapy was used to assess the ability of the identified signaling profiles to predict disease relapse. Healthy, unstimulated BMMC (n=2) were purchased from a commercial source (All Cells) to serve as a control. All samples underwent fractionation over Ficoll-Hypaque prior to cryopreservation with 90% fetal bovine serum and 10% dimethyl sulfoxide and storage in liquid nitrogen.
The SCNP assay measured response to growth factors and cytokines involved in hematopoietic progenitor or myeloid biology (SCF, FLT3L, G-CSF, IL-27), drug transporter (ABCG2, MRP-1) and chemokine receptors (CXCR4) associated with adverse disease prognosis in AML, and the c-Kit growth factor receptor for SCF. The SCF and FLT3L—mediated PI3K/Akt and MAPK pathway is important for maintaining the hematopoietic stem cell pool; G-CSF-mediated Jak/STAT pathway activation is important for neutrophilic differentiation of hematopoietic progenitor cells; interleukin (IL)-27 mediated Jak/STAT pathway activation is important in regulating proliferation and differentiation of hematopoietic stem cells; CXCR4 expression is associated with disease relapse and decreased survival; and drug transporter expression levels (i.e. ABCG2 and MRP-1) are known to be associated with adverse prognosis in AML. All together, approximately 20 signaling nodes were evaluated in each sample.
SCNP assays were performed as described previously. Cryopreserved samples were thawed at 37° C. and washed once in warm PBS containing 10% FBS (HyClone, Waltham, Mass., USA) and 2 mM EDTA. […] The cells were re-suspended in RPMI containing 1% FBS, aliquoted to 100,000 cells/condition and rested for 1-2 hours at 37° C. Cells were incubated for 15 minutes at 37° C. with each of the following signaling modulators: fins-like tyrosine kinase receptor-3 ligand (FLT3L, 50 ng/ml; eBiosciences, San Diego, Calif., USA); granulocyte colony-stimulating factor (G-CSF, 50 ng/ml; R&D Systems, Minneapolis, Minn., USA); interleukin-27 (IL-27, 50 ng/ml, R&D Systems); stem cell factor (SCF, 20 ng/ml, R&D Systems). After exposure to modulators, cells were fixed with a final concentration of 1.6% paraformaldehyde (Electron Microscopy Sciences, Hatfield, Pa., USA) for 10 minutes at 37° C. Cells were pelleted and then permeabilized with 100% ice-cold methanol (Sigma-Aldrich, St. Louis, Mo., USA) and stored at −80° C. overnight. Subsequently, cells were washed with FACS buffer containing phosphate buffered saline (PBS, Fisher Scientific, Waltham, Mass., USA), 0.5% bovine serum albumin (BSA, Ankeny, Iowa, USA), 0.05% NaN3 (Mallinckrodt, Hazelwood, Mo., USA), pelleted and stained with cocktails of fluorochrome-conjugated antibodies. As an exploratory effort, when sufficient number of cells were available, simultaneous measurement of c-Kit expression and SCF induced signaling was also performed. Antibodies were available from commercial vendors such as BD, Bechman Coulter, Invitrogen and R&D Systems.
Flow cytometry data was acquired on an LSR II and/or CANTO II flow cytometer using the FACS DIVA software (BD Biosciences, San Jose, Calif.). […]

[2] = tested on: AML PBMC; test: Kinase inhibitor Signaling Arm, SCNP (Example 13); assay type: cell-based, human; settings: range over AML PBMC samples (N=6); short modulation, 15 minutes

Row | Molecule | modulator responsive cells in the diagnostic AML bone marrow samples [1] | cells in which both p-Akt and p-S6 were induced ([1]; relapse sample from Patient 1) | cells in which both p-Akt and p-S6 were induced ([1]; relapse sample from Patient 2) | percentage of growth factor responsive cells [2]
1 | SCF: stem cell factor, ligand of c-Kit | ~1% | 3.2% | 31.7% | 6%-49%
2 | G-CSF: granulocyte colony-stimulating factor (protein, UniProt P09919 31-207, looked up) Granulocyte …: TPLGPASSLPQSFLLKCLEQVRKIQGDGAALQEKLVSECATYKLCHPEELVLLGHSLGIPWAPLSSCPSQALQLAGCLSQLHSGLFLYQGLLQALEGISPELGPTLDTLQLDVADFATTIWQQMEELGMAPALQPTQGAMPAFASAFQRRAGGVLVASHLQSFLEVSYRVLRHLAQP | ~1% |  |  | 3%-56%
3 | IL-27: interleukin-27, cytokine modulator (protein, UniProt Q8NEV9 29-243; Q14213 21-229, looked up) Interleukin-27 subunit alpha: FPRPPGRPQLSLQELRREFTVSLHLARKLLSEVRGQAHRFAESHLPGVNLYLLPLGEQLPDVSLTFQAWRRLSDPERLCFISTTLQPFHALLGGLGTQGRWTNMERMQLWAMRLDLRDLQRHLRFQVLAAGFNLPEEEEEEEEEEEEERKGLLPGALGSALQGPAQVSWPQLLSTYRLLHSLELVLSRAVRELLLLSKAGHSVWPLGFPTLSPQP Interleukin-27 subunit beta: RKGPPAALTLPRVQCRASRYPIAVDCSWTLPPAPNSTSPVSFIATYRLGMAARGHSWPCLQQTPTSTSCTITDVQLFSMAPYVLNVTAVHPWGSSSSFVPFITEHIIKPDPPEGVRLSPLAERQLQVQWEPPGSWPFPEIFSLKYWIRYKRQGAARFHRVGPIEATSFILRAVRPRARYYVQVAAQDLTDYGELSDWSLPATATMSLGK | no IL-27 responsive subpopulation was identified |  |  | 
4 | FLT3L: fms-like tyrosine kinase receptor-3 ligand (protein, UniProt P49771 27-235, looked up) Fms-related tyrosine kinase 3 …: TQDCSFQHSPISSDFAVKIRELSDYLLQDYPVTVASNLQDEELCGGLWRLVLAQRWMERLKTVAGSKMQGLLERVNTEIHFVTKCAFQPPPSCLRFVQTNISRLLQETSEQLVALKPWITRQNFSRCLELQCQPDSSTLPPPWSPRPLEATAPTAPQPPLLLLLLLPVGLLLLAAAWCLHWQRTRRRTPRPGEQVPPVPSPQDLLLVEH | ~1% |  |  | 3%-22%
